± gives the uncertainty stated by the source.
B1: Receptor-interacting serine/threonine-protein kinase 2, residues 438 to 518; numbered along this chain, O43353 (parent)
chain: QWIQSKREDIVNQMTEACLNQSLDALLSRDLIMKEDYELVSTKPTRTSKVRQLLDTTDIQGEEFAKVIVQKLKDNKQMGLQ
B2: Protein maelstrom homolog, residues 3 to 71; numbered along this chain, Q96JY0 (parent)
chain: NRKASRNAYYFFVQEKIPELRRRGLPVARVADAIPYCSSDWALLREEEKEKYAEMAREWRAAQGKDPGP

Variants of: B1
Experiment: abundance fitness (aPCA) (normalised: wild type 0, dead -1); higher = more abundant; growth selection in yeast, the domain comes from the species named
Details: Homo sapiens

Abundance fitness, by site and new letter:
E8: M -0.272 ± 0.16; V -0.301 ± 0.072; R -0.36 ± 0.055; T -0.209 ± 0.077

Variants of: B2
Experiment: as above
Details: Homo sapiens

Abundance fitness of substitutions, site by site:
D66: T 0.173 ± 0.12; V 0.018 ± 0.049; I 0.024 ± 0.094; C -0.241 ± 0.11; F -0.116 ± 0.073; K 0.171 ± 0.067; A -0.148 ± 0.071; L 0.047 ± 0.049; M 0.051 ± 0.072; W -0.155 ± 0.092; P -0.052 ± 0.17; R -0.02 ± 0.061; H 0.122 ± 0.097; S -0.042 ± 0.065; Y -0.095 ± 0.072; E -0.003 ± 0.06; Q 0.07 ± 0.07
P67: M -0.12 ± 0.09; S -0.067 ± 0.065; D -0.43 ± 0.18; F -0.101 ± 0.083; A -0.098 ± 0.069; E -0.046 ± 0.084; L 0.022 ± 0.056; V 0.091 ± 0.073; K -0.069 ± 0.14; W -0.263 ± 0.07; R 0.118 ± 0.047; N -0.105 ± 0.23; T -0.155 ± 0.078; G 0.009 ± 0.048; H 0.024 ± 0.11; C -0.417 ± 0.18
G68: A -0.139 ± 0.1; F -0.119 ± 0.14; M -0.048 ± 0.086; K -0.025 ± 0.11; T -0.186 ± 0.15; V -0.376 ± 0.072; I -0.296 ± 0.15; Q -0.064 ± 0.1; N -0.459 ± 0.26; H 0.038 ± 0.18; W -0.128 ± 0.098; E 0.014 ± 0.068; S -0.273 ± 0.098; L -0.309 ± 0.06; R -0.079 ± 0.057; D -0.083 ± 0.087; C -0.12 ± 0.17; Y -0.646 ± 0.18
P69: A -0.007 ± 0.091; M -0.144 ± 0.14; S 0.126 ± 0.083; I -0.556 ± 0.39; L 0.189 ± 0.13; W 0.11 ± 0.48; N -0.341 ± 0.38; G 0.392 ± 0.19; C 0.071 ± 0.17; R 0.397 ± 0.18; H -0.049 ± 0.17; F 0.035 ± 0.17; K 0.411 ± 0.11; Q -0.281 ± 0.35; E 0.168 ± 0.31; Y 0.162 ± 0.36; V 0.013 ± 0.086
K65: V -0.12 ± 0.065; R -0.037 ± 0.042; N -0.116 ± 0.14; S -0.154 ± 0.066; T -0.26 ± 0.079; Q -0.084 ± 0.089; P -0.134 ± 0.092; M -0.497 ± 0.14; H -0.259 ± 0.11; G -0.048 ± 0.046; L -0.175 ± 0.068; Y -0.109 ± 0.17

From the Human Domainome abundance scans (Beltran et al. 2025)
